Laboratory results as given in patent US20060002901A1, “Composition containing eosinophil cationic protein” (priority 2002, published 2006).

B1: RNaseA: RNaseA, added as comparison protein alongside ECP (protein, UniProt P61823 27-150, looked up)
Ribonuclease pancreatic: KETAAAKFERQHMDSSTSAASSSNYCNQMMKSRNLTKDRCKPVNTFVHESLADVQAVCSQKNVACKNGQTNCYQSYSTMSITDCRETGSSKYPNCAYKTTQANKHIIVACEGNPYVPVHFDASV
B2: eosinophil cationic protein (protein, UniProt P12724 28-160, looked up)
Eosinophil cationic protein: RPPQFTRAQWFAIQHISLNPPRCTIAMRAINNYRWRCKNQNTFLRTTFANVVNVCGNQSIRCPHNRTLNNCHRSRFRVPLLHCDLINPGAQNISNCTYADRPGRRFYVVACDNRDPRDSPRYPVVPVHLDTTI

Experiments:
BALB/c 3T3 cells [1] = test: Proliferation of BALB/c 3T3 cells in low-serum medium, phase-contrast microscopy; type: cell-based, mouse; settings: 0.5% FBS, 1 μM ECP, 60 pM bFGF, 48 hours, FIG. 4
Protocol: In DMEM culture medium containing 10% FBS in a 24-well culture plate, BALB/c 3T3 cells were inoculated at a concentration of 2×10^4 cells/well, and cultured. […] After 24 hours, 1 μM ECP or RNaseA, and 60 pM bFGF were added to the culture solution in combination, respectively, then the culture was continued for an additional 48 hours.

BALB/c 3T3 A31-K cells = test: Proliferation of BALB/c 3T3 cells, number of living cells after 48 hours; type: cell-based, mouse; settings: 10% FBS, FIG. 2
Protocol: In DMEM culture medium containing 10% FBS in a 96-well culture plate, BALB/c 3T3 A31-K cells were inoculated at a concentration of 1000 cells/well, and after 24 hours, ECP or RNaseA was added to the culture solution to a final concentration of 1 μM, respectively. After the culture was continued for 48 hours, the number of living cells was counted.

[2] = tested on: aortic smooth muscle cell line (A10); test: Proliferation of cell lines derived from normal tissue, 10% FBS, MTT; type: cell-based; settings: ECP 0 to 10 μM, 48 hours, FIG. 1
Protocol: (§1) The effects of ECP on the proliferation of a mouse fibroblast cell line (BALB/c 3T3), aortic smooth muscle cell line (A10), mouse mammary epithelial cell line (HC-11) and human umbilical vessel endothelial cell line (HUVEC) were analyzed in the presence of 10% FBS. First, in DMEM culture medium containing 10% FBS in a 96-well culture plate, each cell line was inoculated at a concentration of 500 cells/well. Then, the cells were cultured for 24 hours in an incubator in which CO2 was maintained at 5%. Then, the respective concentrations of ECP and RNaseA (0 to 10 μM) were added, and the culture was continued for 48 hours in the same incubator. Then, 3-(4,5-dimethylthiazol-2-yl)-diphenyl-tetrazolium bromide (MTT) was added, and the proliferation rate of each cell line was obtained.

[3] = tested on: human umbilical vessel endothelial cell line (HUVEC); test: as above; type: cell-based; settings: ECP 0 to 10 μM, 48 hours, FIG. 1
Protocol: as §1

[4] = tested on: mouse fibroblast cell line (BALB/c 3T3); test: as above; type: cell-based; settings: ECP 0 to 10 μM, 48 hours, FIG. 1
Protocol: as §1

[5] = tested on: mouse mammary epithelial cell line (HC-11); test: as above; type: cell-based; settings: ECP 0 to 10 μM, 48 hours, FIG. 1
Protocol: as §1

BALB/c 3T3 cells [6] = test: Time-course proliferation of BALB/c 3T3 cells, living cells counted every 24 hours; type: cell-based, mouse; settings: 10% FBS, 4 days, medium changed on day 2, FIG. 3
Protocol: In DMEM culture medium containing 10% FBS in a 96-well culture plate, BALB/c 3T3 cells were inoculated at a concentration of 1000 cells/well. After the cells were cultured for 24 hours, 1 μM ECP or 1 μM RNaseA was added to the culture solution to a final concentration of […], respectively. The culture was continued for 4 days, and the number of living cells was counted for every 24 hours. Incidentally, the culture medium was changed on day 2 of the culture.

BALB/c 3T3 cells [7] = test: Cytoskeletal molecule (stress fiber) formation in low-serum medium, confocal immunostaining; type: cell-based, mouse; settings: 0.5% FBS, 1 μM ECP, 6 hours, FIG. 5
Protocol: A round cover glass with a diameter of 15 mm which had been sterilized in advance was placed in a 24-well culture plate, 1× phosphate buffer (PBS) containing 0.1% gelatin was added to each well so that the cover glass was sufficiently dipped in the solution. Then, the plate was left at room temperature for 30 minutes, whereby the cover glass was coated with gelatin. Then, each well was filled with DMEM culture medium containing 10% FBS, and BALB/c 3T3 cells were inoculated at a concentration of 2×10^4 cells/well and cultured. […] After an additional 24 hours, 1 μM ECP or RNaseA was added to the culture solution, respectively. After 6 hours, the cover glass on which BALB/c 3T3 cells were grown, was taken out from the well, washed 2 to 3 times with 1× PBS, then dipped in 4% formaldehyde (Wako Pure Chemical Industries, Ltd.) at room temperature for 10 minutes, whereby the cells were fixed. Then, the cover glass was washed 2 to 3 times with 1× PBS, dipped in 1× PBS containing 0.1% Trton-X100 for 10 minutes, whereby the cell membranes were lysed. Then, the cover glass was washed 2 to 3 times with 1× PBS, dipped in 0.5% BSA/PBS and left at room temperature for 30 minutes, whereby a nonspecific adsorption region was blocked with BSA in this operation. […]

[8] = tested on: myocardial cell derived from newborn rat; test: Immunofluorescence staining of dedifferentiated myocardial cells; type: cell-based; settings: ECP 100 ng/ml; 24 hours; FIG. 8
Protocol: The cultured myocardial cells were cultured in SFM (2 μM BrDU, 100 units/ml penicillin, 100 μg/ml streptomycin) for 48 hours, whereby the cells were dedifferentiated. Then, the culture medium was changed, and ECP was added to a final concentration of 100 ng/ml. After an additional 24 hours, the cells were washed three times with 1× PBS for 10 minutes each, then dipped in 4% paraformaldehyde at room temperature for 30 minutes, whereby the cells were fixed. Then, the cells were dipped in PBS containing 0.25% Triton-X100 at room temperature for 15 minutes, and reacted in a blocking buffer containing BSA, to which anti-ENH1 antibody had been added at a ratio of 1:40, or anti-α-actinin antibody had been added at a ratio of 1:100, at 4° C. overnight. Then, a 20-minute washing with PBS containing 0.03% Triton-X100 was performed and the washing was repeated three times. To the blocking buffer, Cy3-labeled anti-mouse antibody and Cy2-labeled anti-rabbit IgG antibody were added (1:250 dilution in blocking buffer), respectively, and reaction was performed at 4° C. for 4 hours. After the reaction, a 20-minute washing with PBS containing 0.03% Triton-X100 was performed again and the washing was repeated three times. Then, water content was removed and 90% glycerol was added.

[9] = tested on: myocardial cell derived from newborn rat; test: Number of heartbeats of myocardial cells; type: cell-based; settings: ECP 10 ng, 100 ng or 1 μg per ml; 24 hours; FIG. 9
Protocol: Myocardial cells isolated from a newborn rat were dedifferentiated in the same manner as in Example 7 and ECP was added to the culture solution (10 ng, 100 ng or 1 μg per ml). Twenty-four hours after the addition, the number of heartbeats was counted.
Further, the effects of a ROCK inhibitor (Y27632) on the effects of ECP on increase in the number of heartbeats of myocardial cell were studied. The adding amounts of Y27632 were set at 0, 5, 10 and 15 μM, and the ECP concentration was set at 100 ng/ml.

PC12 cells = test: Survival of nerve like PC12 cells in serum-free medium, Cell Titer-Glo; type: cell-based; settings: serum-free DMEM, 72 hours, ECP 10 and 1000 ng/ml, FIG. 11
Protocol: PC12 cells were cultured overnight in a 96-well culture plate at 1×10^4 cells/well/100 μl. As the culture medium, DMEM culture medium containing 10% FBS, penicillin, and streptomycin was used. Then, washing was performed once with 150 μl of DMEM, and the medium was changed to DMEM culture medium containing 100 μl of ECP, penicillin, and streptomycin. After cells were cultured for 72 hours, the number of living cells was counted using Cell Titer-GloTM Luminescent Cell Viability Assay (No. G7570; Promega).

MC3T3-E1 cells = test: Alkali phosphatase (ALP) activity in osteoblast-like cells; type: cell-based, rat; settings: ECP at 1 ng/ml vs BMP-4 100 ng/ml, 72 hours, FIG. 12
Protocol: MC3T3-E1 cells were inoculated into α-MEM medium in a 24-well culture plate, and ECP (at a final concentration of 1 ng, 10 ng, 100 ng or 1 μg per ml), BMP-4 (100 ng/ml) or bFGF (100 ng/ml) was added. After 72 hours, the cells were washed with 10 mM Tris-HCl (pH 7.2) solution twice, and lysed in 10 mM Tris-HCl (pH 7.2) solution containing 0.1% Triton-X100. Then, the cell lysis solution was subjected to sonication treatment for 15 seconds to homoginize the cells. Then, 100 μl of the homogenized cell solution and 0.1 M aminomethyl propanol were mixed with 100 μl of a substrate solution (4 mg/ml p-nitorophenyl phosphate and 2 mM MgCl2) adjusted at pH 10.5, and they were reacted with each other at 37° C. for 30 minutes. The reaction was terminated with 0.5 M NaOH, and the absorbance at 410 nm was measured. The obtained value was divided by the total amount of proteins in the homogenized cell solution, whereby the specific activity was calculated.

| Molecule | cell proliferation in low-serum medium (phase-contrast observation) (BALB/c 3T3 cells [1]) | cell proliferation (number of living cells) (BALB/c 3T3 A31-K cells) | cell proliferation (proliferation rate, MTT) [2] | cell proliferation (proliferation rate, MTT) [3] | cell proliferation (proliferation rate, MTT) [4] | cell proliferation (proliferation rate, MTT) [5] | time-course cell proliferation (number of living cells) (BALB/c 3T3 cells [6]) | formation of cytoskeletal molecules (stress fibers) (BALB/c 3T3 cells [7]) | effect on cardiac hypertrophy in myocardial cell (immunofluorescence staining) [8] | number of heartbeats of myocardial cell [9] | survival of nerve cells (number of living cells) (PC12 cells) | ALP activity (specific activity, control = 100%) (MC3T3-E1 cells) |
| --- | --- | --- | --- | --- | --- | --- | --- | --- | --- | --- | --- | --- |
| bFGF: bFGF, added at 60 pM to low-serum culture | The cells were proliferated | – | – | – | – | – | – | – | – | – | – | – |
| B1 | – | could not be observed | – | – | – | – | – | – | – | – | – | – |
| B2 | – | significantly promoted the cell proliferation at any concentration | the proliferation was not promoted or the proliferation was inhibited | the proliferation was not promoted or the proliferation was inhibited | the cell proliferation was promoted | the proliferation was not promoted or the proliferation was inhibited | the proliferation of cells was significantly promoted | increase in the formation of many cytoskeletal molecules (stress fibers) was confirmed | an effect of ECP on cardiac hypertrophy in a myocardial cell was confirmed | increased in a dose-dependent manner | the survival of nerve cells was maintained | equal to or higher than that of BMP-4 |
